Experimental data published in PMC2728497.

Molecular target: Aβ1-40wt (human)
Experiment: SEC

Question: Aβ1-40wt (peptide) was tested. Which stoichiometry N did it give?
Answer: 2
